# Read-outs that look alike come from different tables or passages of the source. Bridge positions count the residues as written; N and C are the ends. Peptide text beside a SMILES is read from it. * marks the point of attachment. DOTA = O=C(O)CN1CCN(CC(=O)O)CCN(CC(=O)*)CCN(CC(=O)O)CC1; Ahx = NCCCCCC(=O)O
# Assay: In vivo biodistribution in MB-231 tumor bearing SCID mice
# Conditions: female, ICR SCID, mouse, iv, total radioactivity; for tissue uptake at 1 h / dose excreted at 1 h: 1 hour post-injection; for tissue uptake at 24 h / dose excreted at 24 h: 24 hours post-injection
# Excerpt: In vivo iodistribution studies. Four- to 5-week old female ICR SCID ([…]) outbred mice were obtained from Taconic (Germantown, N.Y.). The mice were housed five animals per cage in sterile micro isolator cages in a temperature- and humidity-controlled room with a 12-hour light/12-hour dark schedule. The animals were fed autoclaved rodent chow (Ralston Purina Company, St. Louis, Mo.) and water ad libitum. Animals were housed one week prior to inoculation of tumor cells and anesthetized for injections with isoflurane (Baxter Healthcare Corp., Deerfield, Ill.) at a rate of 2.5% with 0.4L oxygen through a non-rebreathing anesthesia vaporizer.
# Human breast cancer MB231 and T47D cells were injected on the bilateral subcutaneous (s.c.) flank with ˜5×10^6 cells in a suspension of 100 μl normal sterile saline per injection site. MB231 and T47D cells were allowed to grow in vivo two to three weeks post inoculation developing tumors ranging in sizes from 0.02-1.30 grams. The biodistribution and uptake of ^111In-DOTA-Phe^19-STh or ^111In-DOTA-6-Ahx-Phe^19-STh in tumor bearing SCID mice was studied. The mice (average weight, 25 g) were injected with aliquots (50-100 μl) of the radiolabeled peptide solution (55-75 kBq) in each animal via the tail vein. Tissues, organs and tumors were excised from the animals sacrificed at 1 hr, 4 hrs and 24 hrs p.i. For blocking studies, an access of non-radioactive 6-Ahx-Phe^19-STh (100 μg) was also injected along with the radiolabeled peptide solution. The radioactivity was measured in a NaI counter and the percent-injected dose per organ and the percent-injected dose per gram tissue were calculated (Tables 5 and 6). Animal studies were conducted in accordance with the highest standards of care as outlined in the NIH guide for Care and Use of Laboratory Animals and the Policy and Procedures for Animal Research at the Harry S. Truman Memorial VA Hospital and according to approved protocols.
structure (smiles),measurement,setting,value
"CC(C)C[C@@H]1NC(=O)[C@H](CCC(=O)O)NC(=O)[C@@H]2CSSC[C@@H]3NC(=O)[C@H](C)NC(=O)[C@@H]4CCCN4C(=O)[C@H](CC(N)=O)NC(=O)[C@H](CSSC[C@H](NC(=O)[C@H](Cc4ccc(O)cc4)NC(=O)[C@H](CC(N)=O)NC(=O)[C@H](CO)NC(=O)[C@H](CO)NC(=O)[C@H](CC(N)=O)NC(=O)CCCCCNC(=O)CN4CCN(CC(=O)O)CCN(CC(=O)O)CCN(CC(=O)O)CC4)C(=O)N2)NC(=O)[C@H](CSSC[C@@H](C(=O)N[C@@H](Cc2ccccc2)C(=O)O)NC(=O)CNC(=O)[C@H]([C@@H](C)O)NC3=O)NC1=O [^111In-DOTA-6-Ahx-Phe^19-STh, metal not drawn] ({DOTA-Ahx}-NSSNYCCELCCNPACTGCF-OH; disulfide 6-11, 7-15, 10-18)",tissue uptake at 1 h,"MB-231 tumor, MB-231 tumor, Blocking (100 μg non-radioactive 6-Ahx-Phe^19-STh co-injected), n = 4, read-out: biodistribution, Tumor",0.84 ± 0.3 %ID/g
same,tissue uptake at 1 h,"MB-231 tumor, MB-231 tumor, n = 5, read-out: biodistribution, Tumor",0.7 ± 0.16 %ID/g
same,tissue uptake at 4 h,"MB-231 tumor, MB-231 tumor, 4 hours post-injection, n = 5, read-out: biodistribution, Tumor",0.24 ± 0.12 %ID/g
same,tissue uptake at 24 h,"MB-231 tumor, MB-231 tumor, n = 4, read-out: biodistribution, Tumor",0.13 ± 0.16 %ID/g
same,tissue uptake at 1 h,"blood, Blocking (100 μg non-radioactive 6-Ahx-Phe^19-STh co-injected), n = 4, read-out: biodistribution, Blood",0.85 ± 0.31 %ID/g
same,tissue uptake at 1 h,"blood, n = 5, read-out: biodistribution, Blood",0.57 ± 0.13 %ID/g
same,tissue uptake at 4 h,"blood, 4 hours post-injection, n = 5, read-out: biodistribution, Blood",0.04 ± 0.05 %ID/g
same,tissue uptake at 24 h,"blood, n = 4, read-out: biodistribution, Blood",0.01 ± 0.02 %ID/g
same,dose excreted at 24 h,"faeces, n = 4, read-out: biodistribution, Feces (Avg % ID)",14.2 ± 17.3%
same,tissue uptake at 1 h,"heart, Blocking (100 μg non-radioactive 6-Ahx-Phe^19-STh co-injected), n = 4, read-out: biodistribution, Heart",0.24 ± 0.11 %ID/g
same,tissue uptake at 1 h,"heart, n = 5, read-out: biodistribution, Heart",0.14 ± 0.03 %ID/g
same,tissue uptake at 4 h,"heart, 4 hours post-injection, n = 5, read-out: biodistribution, Heart",0.06 ± 0.06 %ID/g
same,tissue uptake at 24 h,"heart, n = 4, read-out: biodistribution, Heart",0.03 ± 0.03 %ID/g
same,tissue uptake at 1 h,"kidney, Blocking (100 μg non-radioactive 6-Ahx-Phe^19-STh co-injected), n = 4, read-out: biodistribution, Kidney",12.8 ± 2.01 %ID/g
same,tissue uptake at 1 h,"kidney, n = 5, read-out: biodistribution, Kidney",4.98 ± 0.67 %ID/g
same,tissue uptake at 4 h,"kidney, 4 hours post-injection, n = 5, read-out: biodistribution, Kidney",4.96 ± 0.5 %ID/g
same,tissue uptake at 24 h,"kidney, n = 4, read-out: biodistribution, Kidney",2.94 ± 0.42 %ID/g
same,tissue uptake at 1 h,"large intestine, Blocking (100 μg non-radioactive 6-Ahx-Phe^19-STh co-injected), n = 4, read-out: biodistribution, Large Intestine",0.17 ± 0.03 %ID/g
same,tissue uptake at 1 h,"large intestine, n = 5, read-out: biodistribution, Large Intestine",0.37 ± 0.05 %ID/g
same,tissue uptake at 4 h,"large intestine, 4 hours post-injection, n = 5, read-out: biodistribution, Large Intestine",0.66 ± 0.52 %ID/g
same,tissue uptake at 24 h,"large intestine, n = 4, read-out: biodistribution, Large Intestine",1.5 ± 2.59 %ID/g
same,tissue uptake at 1 h,"liver, Blocking (100 μg non-radioactive 6-Ahx-Phe^19-STh co-injected), n = 4, read-out: biodistribution, Liver",0.33 ± 0.06 %ID/g
same,tissue uptake at 1 h,"liver, n = 5, read-out: biodistribution, Liver",0.2 ± 0.03 %ID/g
same,tissue uptake at 4 h,"liver, 4 hours post-injection, n = 5, read-out: biodistribution, Liver",0.09 ± 0.02 %ID/g
same,tissue uptake at 24 h,"liver, n = 4, read-out: biodistribution, Liver",0.05 ± 0.02 %ID/g
same,tissue uptake at 1 h,"lung, Blocking (100 μg non-radioactive 6-Ahx-Phe^19-STh co-injected), n = 4, read-out: biodistribution, Lung",0.49 ± 0.12 %ID/g
same,tissue uptake at 1 h,"lung, n = 5, read-out: biodistribution, Lung",0.31 ± 0.04 %ID/g
same,tissue uptake at 4 h,"lung, 4 hours post-injection, n = 5, read-out: biodistribution, Lung",0.08 ± 0.05 %ID/g
same,tissue uptake at 24 h,"lung, n = 4, read-out: biodistribution, Lung",0.01 ± 0.02 %ID/g
same,tissue uptake at 1 h,"muscle, Blocking (100 μg non-radioactive 6-Ahx-Phe^19-STh co-injected), n = 4, read-out: biodistribution, Muscle",0.1 ± 0.08 %ID/g
same,tissue uptake at 1 h,"muscle, n = 5, read-out: biodistribution, Muscle",0.1 ± 0.08 %ID/g
same,tissue uptake at 4 h,"muscle, 4 hours post-injection, n = 5, read-out: biodistribution, Muscle",0.04 ± 0.05 %ID/g
same,tissue uptake at 24 h,"muscle, n = 4, read-out: biodistribution, Muscle",0.02 ± 0.04 %ID/g
same,tissue uptake at 1 h,"pancreas, Blocking (100 μg non-radioactive 6-Ahx-Phe^19-STh co-injected), n = 4, read-out: biodistribution, Pancreas",0.21 ± 0.04 %ID/g
same,tissue uptake at 1 h,"pancreas, n = 5, read-out: biodistribution, Pancreas",0.13 ± 0.03 %ID/g
same,tissue uptake at 4 h,"pancreas, 4 hours post-injection, n = 5, read-out: biodistribution, Pancreas",0.05 ± 0.02 %ID/g
same,tissue uptake at 24 h,"pancreas, n = 4, read-out: biodistribution, Pancreas",0.03 ± 0.02 %ID/g
same,tissue uptake at 1 h,"small intestine, Blocking (100 μg non-radioactive 6-Ahx-Phe^19-STh co-injected), n = 4, read-out: biodistribution, Small Intestine",0.85 ± 1.19 %ID/g
same,tissue uptake at 1 h,"small intestine, n = 5, read-out: biodistribution, Small Intestine",0.99 ± 0.18 %ID/g
same,tissue uptake at 4 h,"small intestine, 4 hours post-injection, n = 5, read-out: biodistribution, Small Intestine",0.28 ± 0.07 %ID/g
same,tissue uptake at 24 h,"small intestine, n = 4, read-out: biodistribution, Small Intestine",0.21 ± 0.13 %ID/g
same,tissue uptake at 1 h,"spleen, Blocking (100 μg non-radioactive 6-Ahx-Phe^19-STh co-injected), n = 4, read-out: biodistribution, Spleen",0.12 ± 0.14 %ID/g
same,tissue uptake at 1 h,"spleen, n = 5, read-out: biodistribution, Spleen",0.15 ± 0.1 %ID/g
same,tissue uptake at 4 h,"spleen, 4 hours post-injection, n = 5, read-out: biodistribution, Spleen",0.05 ± 0.05 %ID/g
same,tissue uptake at 24 h,"spleen, n = 4, read-out: biodistribution, Spleen",0.02 ± 0.04 %ID/g
same,tissue uptake at 1 h,"stomach, Blocking (100 μg non-radioactive 6-Ahx-Phe^19-STh co-injected), n = 4, read-out: biodistribution, Stomach",2.18 ± 3.69 %ID/g
same,tissue uptake at 1 h,"stomach, n = 5, read-out: biodistribution, Stomach",0.31 ± 0.33 %ID/g
same,tissue uptake at 4 h,"stomach, 4 hours post-injection, n = 5, read-out: biodistribution, Stomach",0.03 ± 0.01 %ID/g
same,tissue uptake at 24 h,"stomach, n = 4, read-out: biodistribution, Stomach",0.09 ± 0.09 %ID/g
same,dose excreted at 1 h,"urine, Blocking (100 μg non-radioactive 6-Ahx-Phe^19-STh co-injected), n = 4, read-out: biodistribution, Urine (Avg % ID)",87.4 ± 4.5%
same,dose excreted at 1 h,"urine, n = 5, read-out: biodistribution, Urine (Avg % ID)",89.4 ± 2.9%
same,dose excreted at 4 h,"urine, 4 hours post-injection, n = 5, read-out: biodistribution, Urine (Avg % ID)",95.8 ± 1.4%
same,dose excreted at 24 h,"urine, n = 4, read-out: biodistribution, Urine (Avg % ID)",82.5 ± 20.3%
